Laboratory results as given in paper PMC2659241 (The Journal of Biological Chemistry, 2009).

Biological target: Recombinant human moesin FERM domain (human, UniProt P26038 2-295)
Test: cross-linking

Chain of Recombinant human moesin FERM domain (P26038 2-295): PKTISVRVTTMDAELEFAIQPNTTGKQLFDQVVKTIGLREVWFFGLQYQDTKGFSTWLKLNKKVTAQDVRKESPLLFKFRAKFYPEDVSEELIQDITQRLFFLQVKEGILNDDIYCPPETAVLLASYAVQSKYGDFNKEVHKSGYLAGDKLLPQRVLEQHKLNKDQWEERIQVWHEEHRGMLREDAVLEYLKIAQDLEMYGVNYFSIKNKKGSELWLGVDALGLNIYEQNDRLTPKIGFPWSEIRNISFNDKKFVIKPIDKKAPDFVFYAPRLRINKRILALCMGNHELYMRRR

stoichiometry N: 1
Binder: RRLKKGKKSKRSMNDPY [L-selectin cytoplasmic tail peptide]
